Values quoted from earlier work as cited in article PMC7116363 (Biomaterials, 2020).

Key:
L cells = conditions: in mice
[1] = not given; remark: listed apart in the source

CCC(=O)O [propionate]
effective concentration of propionate needed to exert an effect on L cells (L cells): 140 mmol/L

liraglutide
circulating levels after oral co-administration with SNAC: failed to provide circulating levels

semaglutide
half-life [1]: 165 h
